# From the nanobody polyreactivity screen of Harvey et al. (2022)
# Assay: yeast display, Sf9 membrane polyspecificity reagent, FACS + sequencing; frameworks hold sequencing errors
# Summary of the method: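 In a synthetic yeast display library (Saccharomyces cerevisiae BJ5465), nanobody expression was induced with galactose for 36–48 hours. FACS gates were set low and high (top ~1%) using anti-HA fluorescence for expression and streptavidin fluorescence for binding of the Sf9 membrane reagent. Each polyreactivity label is drawn from the gate of origin.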
row,Sequence,polyreactivity (PSR sort gate)
1,QVQLVESGGGLVQAGGSLRLSCAASGRTLIFYAMGWYRQAPGKERELVAAISGSGGRTYYADSVKGRFTISRDNAKNTVYLQMNSLKPEDTAVYYCNRRHSYPYDYWGQGTQVTVSS,high polyreactivity
2,QVQLVESGGGLVQAGGSLRLSCAASGRTFQNNAMGWYRQAPGKERELVAAISRSGASTYYADSVKGRFTISRDNAKNTVYLQMNSLKPEATAVYYCAAVTKLGYPPVNHLEDDYWGQGTQVTVSS,low polyreactivity
3,QVQLVDSGGGLVQAGGSLRLICDASGFIFFAYAMGWYRQAPGKERELVAVITSGGGTNYADSVKGRFTFSRDNAKNTVYLQMTSLKPEDTAVYYCNADYFFASTEFYYWGQGTQVTVSS,low polyreactivity
4,QVQLVESGGGLVQAGGSLRLSCAASGRTFKRNAMGWYRQAPGKERELVAGISTGGSTNYADSVKGRFTISRDNAKNTVYLQMNSLKPEDTAVYYCAARYRTDWTPGYHVGYYYWGQGTQVTVSS,high polyreactivity
5,QVQLVESAAGLVKAGASLRLSCAPSGSTFYLNAMGGSRQEPGQESEFVAAIRGGGTSTRYADSVKGRFTISRDNAKNSVYLQMNSLKPEDSAVYYCAAGPGGHRYKVGYWGLGTQVTVSS,high polyreactivity
6,QVQLVESGGGLVQAGCSLRLSCAASGSTFRSYAMGWYRQAPGKERELVASISGDGDSTYYADSVKGRFTISRDNAKNTVYLQMNSLKPEDTAVYYCNKGLHNGEVDYDYWGQGTQVTVSS,low polyreactivity
7,QVQLVESGGGLVQAGGSLRLSCAASGITFHWYAMGWYRQAPGKERELVAAITSSGDSTFYADSVKGRFTISRDNAKNSVYLQMNSLKPEDTAVYYCAVDVYVGYWGRLYYWGQGTQVTVSS,low polyreactivity
8,QDQLEESGGGLSQAGGSLRLSCAASGINFPSYTMGWSRQATGKERELVAAIDSGGSTYYADSVKGRFTISRDNAKNSVYLQMNSLIPEDTAVYYCAAEPDTYWYTYDYWGQGTQVSVSS,low polyreactivity
9,QVQLVESGGGLVQAGGSLRLSCAASGFILYDNTMGWYRQAPGKEREFVAAIRDSGGSTYYADSVKGRFTISRDNAKNTVYLQMNSLKPEDTAVYYCNTYGSGTHSTGYDYWGQGTQVTVSS,low polyreactivity
10,QVQLVESGGGLVQAGGSLRLSCAASGSIITWNAMGWYRQAPGKERELVAAIDWDGGSTYYADSVKGRFTISRDNAKNTVYLQMNSLKPEDSAVYYCAATYGWYTGRYPSGHYYYWGQGTQVTVSS,low polyreactivity
11,QVQLVESGGGLVQAGGSLRLSCAASGRTFYTYAMGWYRQAPGKERELVASISRSGSGTFYADSVKGRFTISRDNAKNTVYLQMNSLKPEDTAVYYCNAVSAAKIPFQKYGYWGQGTQVTVSS,high polyreactivity
12,QVQLVESGAGIVQAGGSLRLSCAASGSTFYSYTMGWYRQAPGKERELVAAITSTGGRTYYADSVKGRFTISRDNAKITVYLQMNSLKPEDTAVYYCRRPYLYGMYYWGQGTQVTVSS,high polyreactivity
13,QVQLVESGGGLVQAGGSLRLSCAASGFTFYTNAMGWYRQATGKERELVAVITSGGNTYYADSVKGRFTISRDNAKYTVYLQMNSLKPEDTAVYYCAAKPKRPIRFDYWGQGTQVTVSS,high polyreactivity
14,QVQLVESGGGLVQAGGSLRLSCAASGFTFAVYAMGWYRQAPGKERELVAAISRSGTRTYYADSVKGRFTISRDNAKNTVYLQMNSLKPEDTAVYYCAADKYRHGYDYWGQGTQVTVSS,low polyreactivity
15,QVQLVESGGGLVQAGGSLRLSCAASGRIFYANAMGWYRQAPGKERELVAAISSGGSTYYADSVKGRFTISRDNAKNTVYLQMNSLKPEDTAVYYCAALYWVYFYSEYGPWRYDYWGQGTQVTVSS,low polyreactivity
16,QVQLVESGGGLVQAGGSLSLSCAASGSIFLRNAMGWYRQAPGKERELVAAITWDSGDTYYADSVKGRFTISRDHAKNTVYLQMNSLKPEDTAVYYCNTLGLSSDWGQGTQVTVSS,low polyreactivity
17,QVQLVESGVGLVQAGGSLRLSCAASGRIFTFNVMGWYRQAPGKERELVAAITFSGGSTYYADSVKGRFTISRDNAKNTVYLQMNRLKTEDTAVYFCAAKISLGDDYWGQGTQVTVSS,low polyreactivity
18,QVQLVESGGGLVQAGGSLRLSCAASGFISFGNGMGWYRQAPGKERELVAAITRRGGSTYYADSVKGLFTISRDNAKNTVYLQMNSLKPEDTAVYYCDARYLGSTSTNRPPMDYWGQGTQVTVSS,high polyreactivity
19,QVQLVESGGGLVQAGGSLRLSCAASGSIIGLYVMGWYRQAPGKERELVAAISWSGGSTYYADSVKGRFTISRDNAKNTVYLQMNSLKPEDTAVYYCAARVYSVADYYYWGQGTQVTVSS,low polyreactivity
20,QVQLVESGGGLDQAGGRLRLSCAASGFTFNYNAMGWYRQATGKERELVAAISRSGGRTYYADSVKGRFTISRDNAKNTVYLQMNSLKPEDTAVYYCAADSGTNGYDYWGQGTQVTVSS,high polyreactivity
21,QVQLVESGGGLVQAGGSLRLSCAASGRTSYLYALGWYRQAPGKERELVAAISRGVGSTYYADSVKGRFTISRDNAKNTVYLQMHSLKPEDTAVYYCAAYRYTPWMYYWGQGTQVTVSS,high polyreactivity

row,Sequence,polyreactivity (PSR sort gate)
1,QVQLVESGGGLVQAGGSLRLSCAASGNIFKVNAMGWYRQAPGKERELVAGISWSGGSTYYADSVKGRFTISRDNAKNTVYLQMNSLKPEDTAVYYGNVGRGYWGYLYDYWGQGTQGTVSS,low polyreactivity
2,QVQLVESGGGLVQAGGSLRLSCAASGRTFPSYTMGWYRQAPGKERELVAAITWTGGSTYYADSVKGRFTISRDNAKNTVYLQINSLKREDTAVYYCADYEYWGQGTQVTVSS,low polyreactivity
3,QVQLVESGGGLVQAGGSLRLSCDASGSNFFYARGWSRQAPGRERELVADITYTGGSKYADSVKGRFTISRDNAKNTVDLQLNILKPEDTAVSYCAKLDGGLFDYWGQGTQVNVSS,low polyreactivity
4,QVQLVESGGGLVQAGGSLRLSCAASGFTFGANVMGWYRPAPGKERELVAGITWSGDSTYYADSVKGRFTISRDNAKNTVYLQMNSLKPEDTAVYYCAADVYDGEYILDYDYWGQGTQVTVSS,low polyreactivity
5,QVQLVESGGGLVQAGGSLRLSCAASGYTFGTYTMGWYRMARWKERELVAGIDSGGTTNYADSVKGRFTISRDNATNTVYLQMHSLKPEHTAVYYSTAYHLLIVDYYLGLYYYRGNYYWGQGTQVTVSS,low polyreactivity
6,QVQLVESGGGLVQAGGSLRLSCAASGRTFYNYAMGWYRQAPGKERELVASIRKNGGSTYYADSVKGRFTISRDNAKNTVYLQMNSLKPEDTAVYYCAARYWGISRIFPSKYDYWGQGTQVTVSS,high polyreactivity
7,QVQLVESGGGLVQAGGSLRLSCAASGSTFRLNAMGWYRQAPGKERELVAAISWTGGSTYYADSVKGRFTISRDNAKNTVSLQMNSLKPEDSAVYYCATVSYYDRYDYDYWGQGTQVTVSS,low polyreactivity
8,QVQLVESGGGLVQAGGSLRLSCAASGFTIAVYVMGWYRQAPGNERELVATISFSVGSTYYADSVKGRFTISRDNAKNTVYLLMNCLKPEVTAVYYCNADPPPEYYPDKDNSWGQGTQVTVSS,low polyreactivity
9,QVQLVESGGGLVQAGGSLRLSCAASGYTFYPYARGWYRQAPGKGRELVAVITSGDSTYYADSVKGRFTISRDNAKNTVYLQMNSLKPEDSAVYYCNTLGFDYYYYEYDYWVQGTQVTVSS,low polyreactivity
10,QVQLVESGGGLVQAGGSLRLSCAASGNSFSQYAMGWYRQAPGKERELVATISKSSGSTYYADSVKGRFTISRDNAKNTVYLQMNSLKPEDTAVYSCNAVSSDVYHHLGVLFFSTWYDYWGQGTQVTLSS,low polyreactivity
11,QVQLVESGGGLVQAGGSLRLSCAASGRIFGRYALGWYRQAPGKERELVAAISSSGGSTYFADSVKGRFTISRDNAKNTVYLQMNSLKPEDTAGYYCAADVSAKRYYWGQGTQVTVSS,high polyreactivity
12,QVQLVESGGGLVQAGGSLRLSCAASGSTFVDNAMGWYRQAPGKERELVAAITNSGSTYYADSVKGRFTISRDNAKNTVYLQMNSHKPEDTAVYYCAARSRVYWARSGYWGQGTQVTVSS,low polyreactivity
13,QVQLVESGGGLVQAGGSLRLSCAASGRIFVQYAMGWYRQAPGKERELVAAISKSGVRTFYADSVKGRFTISRDNAKNTVYLQMNSLKPEDTAVYYCNKAYRVGRTEFNYWGQGTQVTVSS,high polyreactivity
14,QVQLVESGGGLVQAGGSLRLSCAASGFTFAVYAMGWDSQAPGKERELVAAISRSGTRTYYADSVKGRFTSSRDNAKNTVSLQMNSLKPEDTAVYYCAADKYRHGYDYWGQGTQVTVSS,low polyreactivity
15,QVQLVESGGGLVQAGGSLRLRCAASGRTFDTYAMGWYRQAPWKERELVASITYRGGSTYYADSVKGRFTITRDNAKNTVYLQMNSLKPEDTAVYYCNAKVKRNKRWRGYWGQGTQVTVSS,high polyreactivity
16,QVQLVESGGGLVQAGGSLRLSCAASGSIFGRYAMGWYRQAPGKERELVAAITGSGGTTYYADSVKGRFTISRDNAKNTVYLQMNSLKPEDTAVYYCAADPQVYYSGRPRYDYWGQGTQVTVSS,high polyreactivity
17,QVQLVESGGGLVQAGGSLRLSCAASGSTFPVYAMGWYRQAPGKERELVASLSSGAETNYADSVKGRFTISRDNAKNTVYLQLISLTPEDTAVYYCAATVPLRTIRPRSYGYWGQGTQVTVSS,low polyreactivity
18,QVQLVESGGGLVQAGGSLRLSCAASGRTLHKNVMGWYRQAPGKERELVAAINTGGRTYYADSVKGRFTISRDNAKNTVYLQMNSLKREDTAVYYCAKEGHVNPRPTVGGDYWGQGTQVTVSS,low polyreactivity
19,QVQLVESGGGLVQAGGSLRLSCAASGYTFVYNAMGWYRQAPGKEREFVAAITWSGTSTRYADSVKGRFTISRDNAKYTVYLQMKSLKPEDTAVYYCAARRRSAQSGSYNHWGQGTQVTVSS,high polyreactivity
20,QVQLVESGGGLVQAGGSLRLSCAASGRIFTTYAMGWYRQAPGKERELVARISSGGTTYYADSVKGRFTISRDNAKNTVYLQMNSLKPEDTAVYYCNVRAVTPTRSRPFRYDYWGQGTQVTVSS,high polyreactivity
